*1 amine or outer side, *2 acyl side, *3 side chain or, on linkers, in order; H or OH if unused. Where no end group is shown, it is not given here. Side-chain parts run from the residue outwards. [ ]: non-standard residue; d: D form. The star is where a group is joined. C20 diacid = O=C(O)CCCCCCCCCCCCCCCCCCC(=O)*; C16 diacid = O=C(O)CCCCCCCCCCCCCCC(=O)*; γGlu = O=C(O)[C@H](CCC(=O)[*:2])N[*:1]; NMeI = CC[C@H](C)[C@H](NC)C(=O)O; Pentanoyl = CCCCC(=O)*; AEEA = NCCOCCOCC(=O)O; Aib = CC(C)(N)C(=O)O
Legend:
[1] = target: Rat CRF2 a (corticotropin-releasing factor receptor 2), on the A7R5 rat aortic smooth muscle cell line (rat, UniProt P47866 20-411); assay: cell-based or functional assay
[2] = target: T1, CRF1R (corticotropin-releasing factor receptor 1), on the CRF1R-overexpression CHO-K1 cell line clone 2 (UniProt P34998 24-415, limits assumed); assay: cell-based or functional assay
T1 sequence (looked up): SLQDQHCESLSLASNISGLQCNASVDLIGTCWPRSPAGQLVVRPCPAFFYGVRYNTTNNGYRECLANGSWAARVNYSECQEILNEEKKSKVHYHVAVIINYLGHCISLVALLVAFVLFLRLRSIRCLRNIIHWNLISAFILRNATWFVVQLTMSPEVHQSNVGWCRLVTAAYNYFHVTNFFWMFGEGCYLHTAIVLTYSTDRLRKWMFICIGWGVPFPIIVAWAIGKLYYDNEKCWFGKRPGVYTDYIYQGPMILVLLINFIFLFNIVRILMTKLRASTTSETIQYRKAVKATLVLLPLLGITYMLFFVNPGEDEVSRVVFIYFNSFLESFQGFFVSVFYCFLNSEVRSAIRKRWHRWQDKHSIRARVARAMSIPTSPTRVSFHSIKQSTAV

Rat CRF2 a (corticotropin-releasing factor receptor 2), on the A7R5 rat aortic smooth muscle cell line, sequence (P47866 20-411): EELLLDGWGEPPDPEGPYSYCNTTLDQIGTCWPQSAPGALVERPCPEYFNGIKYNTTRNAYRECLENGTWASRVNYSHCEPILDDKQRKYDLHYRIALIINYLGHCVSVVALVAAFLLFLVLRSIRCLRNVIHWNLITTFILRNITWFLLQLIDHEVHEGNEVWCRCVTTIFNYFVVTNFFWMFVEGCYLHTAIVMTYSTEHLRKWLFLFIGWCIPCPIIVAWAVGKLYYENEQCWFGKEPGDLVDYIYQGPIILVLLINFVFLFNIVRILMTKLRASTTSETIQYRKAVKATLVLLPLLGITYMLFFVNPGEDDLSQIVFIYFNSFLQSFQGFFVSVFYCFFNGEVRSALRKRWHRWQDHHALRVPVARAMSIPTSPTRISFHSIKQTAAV

B1: peptide of SEQ ID NO: 213 (peptide)
peptide: Ac-IVLSLD[dV]PIKLK([γGlu-C20 diacid])KILLEQEKQKEQREQAETN[Aib]QILAQV-NH2
SMILES: CC[C@H](C)[C@H](NC(C)=O)C(=O)N[C@H](C(=O)N[C@@H](CC(C)C)C(=O)N[C@@H](CO)C(=O)N[C@@H](CC(C)C)C(=O)N[C@@H](CC(=O)O)C(=O)N[C@@H](C(=O)N1CCC[C@H]1C(=O)N[C@H](C(=O)N[C@@H](CCCCN)C(=O)N[C@@H](CC(C)C)C(=O)N[C@@H](CCCCNC(=O)CC[C@H](NC(=O)CCCCCCCCCCCCCCCCCCC(=O)O)C(=O)O)C(=O)N[C@@H](CCCCN)C(=O)N[C@H](C(=O)N[C@@H](CC(C)C)C(=O)N[C@@H](CC(C)C)C(=O)N[C@@H](CCC(=O)O)C(=O)N[C@@H](CCC(N)=O)C(=O)N[C@@H](CCC(=O)O)C(=O)N[C@@H](CCCCN)C(=O)N[C@@H](CCC(N)=O)C(=O)N[C@@H](CCCCN)C(=O)N[C@@H](CCC(=O)O)C(=O)N[C@@H](CCC(N)=O)C(=O)N[C@@H](CCCNC(=N)N)C(=O)N[C@@H](CCC(=O)O)C(=O)N[C@@H](CCC(N)=O)C(=O)N[C@@H](C)C(=O)N[C@@H](CCC(=O)O)C(=O)N[C@H](C(=O)N[C@@H](CC(N)=O)C(=O)NC(C)(C)C(=O)N[C@@H](CCC(N)=O)C(=O)N[C@H](C(=O)N[C@@H](CC(C)C)C(=O)N[C@@H](C)C(=O)N[C@@H](CCC(N)=O)C(=O)N[C@H](C(N)=O)C(C)C)[C@@H](C)CC)[C@@H](C)O)[C@@H](C)CC)[C@@H](C)CC)C(C)C)C(C)C
[1]
  EC50 [nM] 0% HSA (cAMP, A7R5 rat aortic smooth muscle cells): 0.45 nM

B2: peptide of SEQ ID NO: 168 (peptide)
peptide: Ac-IVLSLD[dV]PIKLK([γGlu-C16 diacid])KILLEQEKQKEQREQAETN[Aib]QILAQV-NH2
SMILES: CC[C@H](C)[C@H](NC(C)=O)C(=O)N[C@H](C(=O)N[C@@H](CC(C)C)C(=O)N[C@@H](CO)C(=O)N[C@@H](CC(C)C)C(=O)N[C@@H](CC(=O)O)C(=O)N[C@@H](C(=O)N1CCC[C@H]1C(=O)N[C@H](C(=O)N[C@@H](CCCCN)C(=O)N[C@@H](CC(C)C)C(=O)N[C@@H](CCCCNC(=O)CC[C@H](NC(=O)CCCCCCCCCCCCCCC(=O)O)C(=O)O)C(=O)N[C@@H](CCCCN)C(=O)N[C@H](C(=O)N[C@@H](CC(C)C)C(=O)N[C@@H](CC(C)C)C(=O)N[C@@H](CCC(=O)O)C(=O)N[C@@H](CCC(N)=O)C(=O)N[C@@H](CCC(=O)O)C(=O)N[C@@H](CCCCN)C(=O)N[C@@H](CCC(N)=O)C(=O)N[C@@H](CCCCN)C(=O)N[C@@H](CCC(=O)O)C(=O)N[C@@H](CCC(N)=O)C(=O)N[C@@H](CCCNC(=N)N)C(=O)N[C@@H](CCC(=O)O)C(=O)N[C@@H](CCC(N)=O)C(=O)N[C@@H](C)C(=O)N[C@@H](CCC(=O)O)C(=O)N[C@H](C(=O)N[C@@H](CC(N)=O)C(=O)NC(C)(C)C(=O)N[C@@H](CCC(N)=O)C(=O)N[C@H](C(=O)N[C@@H](CC(C)C)C(=O)N[C@@H](C)C(=O)N[C@@H](CCC(N)=O)C(=O)N[C@H](C(N)=O)C(C)C)[C@@H](C)CC)[C@@H](C)O)[C@@H](C)CC)[C@@H](C)CC)C(C)C)C(C)C
[1]
  EC50 [nM] 0% HSA (cAMP, A7R5 rat aortic smooth muscle cells): 3.23 nM

B3: peptide of SEQ ID NO: 230 (peptide)
peptide: Ac-IVLSLD[dV]PIKLK([AEEA-γGlu-C20 diacid])KILLEQEKQKKQREQAETN[Aib]QILAQV-NH2
SMILES: CC[C@H](C)[C@H](NC(C)=O)C(=O)N[C@H](C(=O)N[C@@H](CC(C)C)C(=O)N[C@@H](CO)C(=O)N[C@@H](CC(C)C)C(=O)N[C@@H](CC(=O)O)C(=O)N[C@@H](C(=O)N1CCC[C@H]1C(=O)N[C@H](C(=O)N[C@@H](CCCCN)C(=O)N[C@@H](CC(C)C)C(=O)N[C@@H](CCCCNC(=O)COCCOCCNC(=O)CC[C@H](NC(=O)CCCCCCCCCCCCCCCCCCC(=O)O)C(=O)O)C(=O)N[C@@H](CCCCN)C(=O)N[C@H](C(=O)N[C@@H](CC(C)C)C(=O)N[C@@H](CC(C)C)C(=O)N[C@@H](CCC(=O)O)C(=O)N[C@@H](CCC(N)=O)C(=O)N[C@@H](CCC(=O)O)C(=O)N[C@@H](CCCCN)C(=O)N[C@@H](CCC(N)=O)C(=O)N[C@@H](CCCCN)C(=O)N[C@@H](CCCCN)C(=O)N[C@@H](CCC(N)=O)C(=O)N[C@@H](CCCNC(=N)N)C(=O)N[C@@H](CCC(=O)O)C(=O)N[C@@H](CCC(N)=O)C(=O)N[C@@H](C)C(=O)N[C@@H](CCC(=O)O)C(=O)N[C@H](C(=O)N[C@@H](CC(N)=O)C(=O)NC(C)(C)C(=O)N[C@@H](CCC(N)=O)C(=O)N[C@H](C(=O)N[C@@H](CC(C)C)C(=O)N[C@@H](C)C(=O)N[C@@H](CCC(N)=O)C(=O)N[C@H](C(N)=O)C(C)C)[C@@H](C)CC)[C@@H](C)O)[C@@H](C)CC)[C@@H](C)CC)C(C)C)C(C)C
[1]
  EC50 [nM] 0% HSA (cAMP, A7R5 rat aortic smooth muscle cells): 0.11 nM
[2]
  EC50 [nM] (cAMP, CRF1R-overexpression CHO-K1 cells): > 250 nM
  Emax (% I) (cAMP, 100% = Sauvagine at 100 nM): 30 % I

B4: peptide of SEQ ID NO: 217 (peptide)
peptide: [NMeI]VLSLD[dV]PIKLK([γGlu-C20 diacid])KILLEQEKQKAQREQAETN[Aib]QILAQV-NH2
modifications: N-terminus assumed
SMILES: CC[C@H](C)[C@H](NC)C(=O)N[C@H](C(=O)N[C@@H](CC(C)C)C(=O)N[C@@H](CO)C(=O)N[C@@H](CC(C)C)C(=O)N[C@@H](CC(=O)O)C(=O)N[C@@H](C(=O)N1CCC[C@H]1C(=O)N[C@H](C(=O)N[C@@H](CCCCN)C(=O)N[C@@H](CC(C)C)C(=O)N[C@@H](CCCCNC(=O)CC[C@H](NC(=O)CCCCCCCCCCCCCCCCCCC(=O)O)C(=O)O)C(=O)N[C@@H](CCCCN)C(=O)N[C@H](C(=O)N[C@@H](CC(C)C)C(=O)N[C@@H](CC(C)C)C(=O)N[C@@H](CCC(=O)O)C(=O)N[C@@H](CCC(N)=O)C(=O)N[C@@H](CCC(=O)O)C(=O)N[C@@H](CCCCN)C(=O)N[C@@H](CCC(N)=O)C(=O)N[C@@H](CCCCN)C(=O)N[C@@H](C)C(=O)N[C@@H](CCC(N)=O)C(=O)N[C@@H](CCCNC(=N)N)C(=O)N[C@@H](CCC(=O)O)C(=O)N[C@@H](CCC(N)=O)C(=O)N[C@@H](C)C(=O)N[C@@H](CCC(=O)O)C(=O)N[C@H](C(=O)N[C@@H](CC(N)=O)C(=O)NC(C)(C)C(=O)N[C@@H](CCC(N)=O)C(=O)N[C@H](C(=O)N[C@@H](CC(C)C)C(=O)N[C@@H](C)C(=O)N[C@@H](CCC(N)=O)C(=O)N[C@H](C(N)=O)C(C)C)[C@@H](C)CC)[C@@H](C)O)[C@@H](C)CC)[C@@H](C)CC)C(C)C)C(C)C
[1]
  EC50 [nM] 0% HSA (cAMP, A7R5 rat aortic smooth muscle cells): 0.06 nM

B5: peptide of SEQ ID NO: 218 (peptide)
peptide: [NMeI]VLSLD[dV]PIKLK([γGlu-C20 diacid])KILLEQEKQKEQREQAETN[Aib]QILAQV-NH2
modifications: N-terminus assumed
SMILES: CC[C@H](C)[C@H](NC)C(=O)N[C@H](C(=O)N[C@@H](CC(C)C)C(=O)N[C@@H](CO)C(=O)N[C@@H](CC(C)C)C(=O)N[C@@H](CC(=O)O)C(=O)N[C@@H](C(=O)N1CCC[C@H]1C(=O)N[C@H](C(=O)N[C@@H](CCCCN)C(=O)N[C@@H](CC(C)C)C(=O)N[C@@H](CCCCNC(=O)CC[C@H](NC(=O)CCCCCCCCCCCCCCCCCCC(=O)O)C(=O)O)C(=O)N[C@@H](CCCCN)C(=O)N[C@H](C(=O)N[C@@H](CC(C)C)C(=O)N[C@@H](CC(C)C)C(=O)N[C@@H](CCC(=O)O)C(=O)N[C@@H](CCC(N)=O)C(=O)N[C@@H](CCC(=O)O)C(=O)N[C@@H](CCCCN)C(=O)N[C@@H](CCC(N)=O)C(=O)N[C@@H](CCCCN)C(=O)N[C@@H](CCC(=O)O)C(=O)N[C@@H](CCC(N)=O)C(=O)N[C@@H](CCCNC(=N)N)C(=O)N[C@@H](CCC(=O)O)C(=O)N[C@@H](CCC(N)=O)C(=O)N[C@@H](C)C(=O)N[C@@H](CCC(=O)O)C(=O)N[C@H](C(=O)N[C@@H](CC(N)=O)C(=O)NC(C)(C)C(=O)N[C@@H](CCC(N)=O)C(=O)N[C@H](C(=O)N[C@@H](CC(C)C)C(=O)N[C@@H](C)C(=O)N[C@@H](CCC(N)=O)C(=O)N[C@H](C(N)=O)C(C)C)[C@@H](C)CC)[C@@H](C)O)[C@@H](C)CC)[C@@H](C)CC)C(C)C)C(C)C
[1]
  EC50 [nM] 0% HSA (cAMP, A7R5 rat aortic smooth muscle cells): 0.13 nM

B6: peptide of SEQ ID NO: 222 (peptide)
peptide: Pentanoyl-VLSLD[dV]PIKLK([γGlu-C20 diacid])KILLEQEKQKAQREQAETN[Aib]QILAQV-NH2
SMILES: CCCCC(=O)N[C@H](C(=O)N[C@@H](CC(C)C)C(=O)N[C@@H](CO)C(=O)N[C@@H](CC(C)C)C(=O)N[C@@H](CC(=O)O)C(=O)N[C@@H](C(=O)N1CCC[C@H]1C(=O)N[C@H](C(=O)N[C@@H](CCCCN)C(=O)N[C@@H](CC(C)C)C(=O)N[C@@H](CCCCNC(=O)CC[C@H](NC(=O)CCCCCCCCCCCCCCCCCCC(=O)O)C(=O)O)C(=O)N[C@@H](CCCCN)C(=O)N[C@H](C(=O)N[C@@H](CC(C)C)C(=O)N[C@@H](CC(C)C)C(=O)N[C@@H](CCC(=O)O)C(=O)N[C@@H](CCC(N)=O)C(=O)N[C@@H](CCC(=O)O)C(=O)N[C@@H](CCCCN)C(=O)N[C@@H](CCC(N)=O)C(=O)N[C@@H](CCCCN)C(=O)N[C@@H](C)C(=O)N[C@@H](CCC(N)=O)C(=O)N[C@@H](CCCNC(=N)N)C(=O)N[C@@H](CCC(=O)O)C(=O)N[C@@H](CCC(N)=O)C(=O)N[C@@H](C)C(=O)N[C@@H](CCC(=O)O)C(=O)N[C@H](C(=O)N[C@@H](CC(N)=O)C(=O)NC(C)(C)C(=O)N[C@@H](CCC(N)=O)C(=O)N[C@H](C(=O)N[C@@H](CC(C)C)C(=O)N[C@@H](C)C(=O)N[C@@H](CCC(N)=O)C(=O)N[C@H](C(N)=O)C(C)C)[C@@H](C)CC)[C@@H](C)O)[C@@H](C)CC)[C@@H](C)CC)C(C)C)C(C)C
[1]
  EC50 [nM] 0% HSA (cAMP, A7R5 rat aortic smooth muscle cells): 0.18 nM
